Assay [1] concerns the target TatB(L54Bpa) (E. coli) (UniProt P69425). The experiment in a line: cross-linking.
In assay [2] the target is TatB, wild type (E. coli) (UniProt P69425). The experiment in a line: cross-linking.

Values joined by “and” are separate entries in the source; they are usually repeats but may differ in a detail not shown here. Equal values may be shown once.

As a reminder, the stoichiometry N is the number of molecules, sites or subunits per partner or assembly.

Regarding “TatB(L54Bpa) (from UniProt P69425 1-171) (natural protein)”, in assay [1], the stoichiometry N was 2 and 3.

Consider “pSufI(L328Bpa) (from UniProt P26648 1-470) (natural protein)”, for which, in assay [2], the percent of the vesicle-associated pSufI in the TatB adduct is 15%.

(Values after paper PMC2993744.)
